Test results published in patent publication US20090203706A1, “LYSINE-BASED POLYMERIC LINKERS” (priority 2006, published 2009).

Test: Rate of hydrolysis of PEG prodrugs in rat plasma (HPLC)
Assay type: in vitro ADME
Settings: 37° C., disappearance of PEG derivative
Description: The rates of hydrolysis were obtained by employing a C8 reversed phase column (Zorbax® SB-C8) using a gradient mobile phase made of (a) 0.1 M triethylammonium acetate buffer and (b) acetonitrile. A flow rate of 1 mL/min was used, and chromatograms were monitored using a UV detector. For hydrolysis in buffer, PEG derivatives were dissolved in 0.1 M pH 7.4 PBS at a concentration of 5 mg/mL, while for hydrolysis in plasma, the derivatives were dissolved in distilled water at a concentration of 20 mg/100 μL and 900 μL of rat plasma was added to this solution. The mixture was vortexed for 2 min and divided into 2 mL glass vials with 100 μL of the aliquot per each vial. The solutions were incubated at 37° C. for various periods of time. A mixture of methanol-acetonitrile (1:1, v/v, 400 μL) was added to a vial at the proper interval and the mixture was vortexed for 1 min, followed by filtration through […] filter membrane (optionally followed by a second filtration through […] filter membrane). An aliquot of 20 μL of the filtrate was injected into the HPLC. On the basis of the peak area, the amounts of native compound and PEG derivative were estimated, and the half-life of each compound in different media was calculated using linear regression analysis from the disappearance of PEG derivative.

## PEG-[Lys (DGA-SCH AF)2]2 [Compound 12a]
  t1/2α of hydrolysis: 5 h
  t1/2β of hydrolysis: 15 h
